Measured values: US20110263485A1 (University of California, published 2011)

B1: C37-linker-CD4M33C1F23 (designed binder)
chain: HTTWMEWDREINNYTSLIHSLIEESQNQQEKNEQELLSSSGGGGSGGGGSSSSCNLHFCQLRCKSLGLLGKCAGSFCACV
B2: C37(Q652L) (N-acetylated, C-term amidated) (peptide)
peptide: Ac-HTTWMEWDREINNYTSLIHSLIEESQNLQEKNEQELL-NH2

Key:
Assay in all cases: cell-based or functional assay
[1] = target: HIV-1 JRFL (R5) env (gp120 and gp41) (HIV-1 strain JRFL)
[2] = target: HIV-1 ADA (R5) env (gp120 and gp41) (HIV-1 strain ADA)
[3] = target: HIV-1 HXB2 env (X4) (gp120 and gp41) (HIV-1 strain HXB2, UniProt P04578 33-856; P04578 33-856)
[4] = target: HIV-1 ADA (R5) env (gp120 and gp41) (HIV-1 strain ADA); remark: listed apart in the source

| Binder | Inhibition of HIV single round pseudovirus in TZM-bl cells, JRFL (R5), IC50 [1] [nM] | Inhibition of HIV single round pseudovirus in TZM-bl cells, JRFL (R5), IC90 [1] [nM] | Inhibition of HIV single round pseudovirus in TZM-bl cells, ADA (R5), IC50 [2] [nM] | Inhibition of HIV single round pseudovirus in TZM-bl cells, ADA (R5), IC90 [2] [nM] | X4 fusion assay IC50 [3] [nM] | R5 fusion assay IC50 [4] [nM] | R5 fusion with competition IC50 [4] [nM] | R5 fusion with wash-out on ADA cells IC50 [4] [nM] | R5 fusion with wash-out on P5L cells IC50 [4] [nM] |
| --- | --- | --- | --- | --- | --- | --- | --- | --- | --- |
| B1 | 2.25 | 24.3 | 2.33 | 17.3 | 2.3 | 6.83 | 7.78 | 77.8 | 561 |
| B2 |  |  | 114 |  |  | 28.2 |  |  |  |
